Experimental data: the DeepSol protein solubility set

test: soluble on expression in E. coli; label from the status in PepcDB or PDB records

| Sequence | soluble on expression in E. coli |
| --- | --- |
| MESYIQNLFAERIGGKSFGKEDVIYKFEKIKRAKQAAKLKYPDMELIDMGVGEPDEMADESVVEVLCEEAKKHVNRGYSDNGVQALKDEIPIYLEKIFGVKDLDPVNEVVHSIGSKPALAYITSVFINPGDVTLMTVPGYPVTATHTKWYGGSVETLPLLEKNNFLPELDAISKEVRENAKILYLNYPNNPTGAQATKKFYKEAVDFAFENDLIVIQDAAYAALTYGDKPLSFLSVKDAKEVGVEIHSFSKAYNMTGWRLAFVAGNELIVRGFAAVKDNYDSGQFIPIQKAGIHCLRHPEITEKTRAKYERRLSKMVKILKEAGFNAKMPGGTFYLYVKAPIGTKDGAKFANAEEFSQFMIKEKLISTVPWDDAGNFVRMAACFEAFKDGEISIEEEDRILNEVKRRLTEVEFVFE | not soluble |
| METADTYTIVLTERNMGYAGQFYMVSKEGIGEAPISVGSGYGNPLMFSIKAVGSVTKGIMNDPYGEIGIRGPYGNVWPWKSYEHVVAIAGGIGIPPIKALIEDMQGHTSLDKLTVLYGARSPSDIVYRSEIETWKEEMDFRITVDKGDENWRGHVGVVTTLVPEIKEYNHGAAFVIGPPVMMKFSVKSLLDAGFAEDNIYLSLERRMECGIGVCGHCNIGRWYACEDGPIFKYSDTKEEPELFL | not soluble |
| METETDDSETSLNDSFGNKDGLELLEYERATLAKTLPASVLFVVANGLGLERLFLEHLILFSDRRLLALVLNTNEHDESYFVSKLKEHNVECDPKVINSEVSIKDRQSIYLEGGVQFCSSRVLLVDLLQNRIPTDRIAAIFVYRAHQTLNAFQDSFILRLYREKKPDGTVKAFTDFPNSLSSLGQLQRLVDRLYIRHVELMPRFSSIIESELNRYQLKTAIFSVDVPTPLRRVHRTIIEFIKVCVRDLRTCSTSGKQTDEQNEEMIHVPWAATRLEKRLHDRRGHISEKQQRLLNDVASLREILQLSENMDVATVLSRLQVLKNDRTVLEEHSGWLLSPSFNRIMEDLLTIAGVTNGKADYKKFATPAKWTVLSEILREIKMLPVEKKDRGNDSPSVLVITSSEDLSRQVTDVVRYGINKMKWMTWRQLGYKSTQEMPEDEPLWDPDTISQLMRSSVDGESKSEVIANVQKTQKTTARAAQKRRKHAEELSGFSSDHRVQTNLIQFGILQYKRRKSGNEASTSQETTEWEVKEEMEEIEEITKNIGDLEAELVVSTTRERERYTLLKLLETKKPRAIVLYTMSLQTLRQIEIYRSTNPNRSLHVYWLQYTESTEESRYLESINRETMSFELLIREQGTLLISREFNVDREDAPRLKISTRDGGGARRDGAVDPRDQMDPEEELERPKIIVDMREFNSELPTVLYTKGYNVVATTIEIGDYILSPNIAIERKALDDLTQSLQSGRVFKQIEQMLEHYDCTVLLIESNRKFETKIVNGGPFQGELSRHCREIRSIFCSLIWANPKMRCVWTISPTNSAEFFSELKLSAPEPDVDRAISLKADQVECSSQELTDSEASTSTKAKKGKKWKPNPTVIRTLTQIFGIKASEAHNLLANSSIKTLADLFSLNITASHLSDFIPSTSADFIKDLSTFNFGRK | not soluble |
| METKPYLIALDLDGTLLKDDKTISENTLHTIQRLKDDGHYVCISTGRPYRSSSMYYQQMELTTPIVNFNGAFVHHPQDDSWGRYHTSLPLDVVKQLVDISESYNVHNVLAEVIDDVYFHYHDEHLIDAFNMNTTNVTVGDLRENLGEDVTSVLIHAKEEDVPAIRSYLSDVHAEVIDHRRWAAPWHVIEIIKSGMNKAVGLQKISDYYGVPRERIIAFGDEDNDLEMLEFAGCGVAMGNGIDAVKQIANRTTATNEEDGVARFLKEYFSL | soluble |
| METLSDVFATFSQRGDTTAFVHRTGVRRYVFTYLDLHALSLRMNRWLADQGVGEGDRVVLWGPNSPWWAVAFWGIVTRGAVAVPVDFMSGAERAEIIAGLTDAKLVIQSRDKLDRLTGRPSVLLEELGFLLEAVEPLATTHRPAPDDMAELIYTSGTTGNPKGVILTHRNLVANILQVNRHIPVVTPDFSFLSLLPLSHMFEQMGGFFTPLYRGAAIVYIRTLKPSAIMEALGEEDIYAIIAVPRLLQLLKGSVERELEAKGLGSIFRWLLKVGERMSRGGRSVLFRPIQRKFGRNFALFVSGGAPLDPEVFRFWNGLGFRVVEGYGLTECSPVLTANTMERQVMGSVGTPLDGVELRLEEGEILARGDNIFPGYFRNEEATRGAFVDGWFRTGDLGELDPDGWLRIKGRSKELIVTGAGVNVYPDEIEAILNRTQGVREGCVIGLDRGKGEEVHGVLILDGSGRPTEEIVNEVNAKFDELHRITSFSVWPEAEFPKTTTLKIRKFQVKERIEQGGGALGDGRGADRLTALVATITGSPLEQVTEGALLVNDLGLTSIARLELVNALEMEFRLDLEDSVIGPQTRVADLREIVSRREKVHIREHFRIWAMGGVALAVRRLLDTVLHGPLLRAFVTLKSLGIENLEAADGPVMFVSNHLSYLDQPAIMCVLPDAWRYNTATAAWEEFFFRNFKNLPQRLWKRFTYEYASVAFTVFPLPQSRGFRGALHFMGTLADQGMNILLFPEGERSRDGRLLPFQQGLGVMIRELGVPVVPVRIRGLEKVLPRGASWPQKGEVSITFGKPIHFRGESPTEIVDRARRAVEDLLEHHHHHH | not soluble |
| METRRDERIGRLAQALKKTDKLHLKDAAQLLGVSEMTVRRDLNADSTSVMLLGGYVVSDLKNNGVTNYFVSDQQTKHVREKQAIGTAAAYLVEANDTVFFDCGTTIPFIIDAIPDELLFTAICYSLNTFLALQEKKACRVILCGGEYHPDNAIFTPLNQRCELDNICPNKAFISAAGIELNAGATCFNFAELGMKQRAMATAQRIIIVADNSKFGQIKRACIGPMTLFDTVISDSAPSEPYLRYFSNNGIQLIHPGNLEHHHHHH | soluble |
| METTVMPAAASVQKQQGLNQVVINKVQRMIESRQGGVMDTINRLLSEGRIAQDFIAPIGVSQRSKERPVISFKAEGRVQMAMPEGNFNLHGNAISQISEKMGIPAKYLRELSAGDVWQKQLCATILNEHSGWTERTRVLIRAVGMEVRGVLSDSYRRLNSVDILTAFIREAGGQGAVVSDAYMNDTKVWCETILPTPIEIPTRKNGTVIIFAGARFSTSDYGNGSVEMRSFLLNGACLNGMVRESVMRQIHLGGRLPESLSLSQKTYELDTQTTVSAVSDLTKGLYSKDTIMQKAIEIQGASEIDVDFDKELKNLVQKGALLKNEGREVEKLLMNNNPDDGVTGGATLWKLTQGITAFAREQQPERCRELHEISGQLMNRVKIN | not soluble |
| METVQDCENKLPPSLKSRLCEIRRYEIIEGPEMDKHIHCVMRALDFVYEDGRGDYHKLYDPLNIIELDKRHDVNLEKCIGECVQVPTSERAHVFYKCLLKSTTGRTFKKVFDLMELKKAGKVPQHQRYTAEFVQIMKDYDKALNC | soluble |
| MEVDPGGGKKPMIVKKMVAFSKREEERILLEIDLYKKLENNEFVIDLMAHIVDDITHYLLFDKYSQNFLEYIEELKIGGEVDELKHLKYFSGIVSAIEQLHGFEFAHLDIKPANILKSGDTIKMIDFGSATKMPIEIKTSADHHRHKEDAEELCSMMYRAPELFNCEIGSTLTTAVDVWALGVCLYEFLYLENPFNKIYEQGGSIALATQSPHMIKWNENRHISEKSINLIKSILIVDPNQRPTIGELRAKVDNLLANFDTPEEAENPEITDEEFDLGMRETT | not soluble |
| MEVEYDEGFDSSSLKNNPASLQRDYPTFMESNCSQMSVRQEFLPIFPQRLDLCQISPKKSEKKSKKKKIPSPIKKTNDTKLSILSEKSEIRSEKHKNKCKSADLDAMEKNFKELLENFSKNAALSNSLRDEASSIISSSASSQKSLFKEINLAKKLSASYSKKPEKTGEKSKNCTFSDSTFRLSSQNDSDSDDTRPPSSQASLAFEVEQARNMMMSSAKIPKPLSSSTPRKERRTTGTNSDSNKILANLKIFKPKCGNFDLFTRKVPENIRLSESQLVELYSNREPRNSKSDITIRQFFDEEDDADKTIVEQVFKDYHRSLEKETPIMRNSATDTSGSLHIERNRDGRSASMSNLISNSGNRTNLTVFDGFAPGALRHSISTVQMSPTKKKFDEFRIEHQEPGILPRFVIKTSLRPIFSPPLDIDEICGKGLRKDAESNLRHFGGKTISAQIHGSKPVQRRPTVPKASKTGSDRPTTASTAKIVEKPEIPVEIPQKLEISRKIAEKTLKLDDFPVKSSNFSNISNFQPRRPPYCSATSSDGSAHSLATVTQQLMGTVKLLHPDWLDMLRRLLNNALPRDDVTLLFKYQVLAEKDHLERKFRGNLSVEAEAADAHLEHFGRISTLNRVLDRLADLTNDGGHVSRIQQIKIIHNALFKD | not soluble |
| MEVHDKIRTLREVNQWTQEEMAEKLEMSVNGYSKIERGKSGINLDKLRQIAQIFNIDVVELLAEQNRSFFFSIGDNTNNHHNIIGSDEMLVFENEKLRSLLDAKDELIRQKDSEIAVLKKLVILLEEKK | not soluble |
| MEVSKANGTENNVEKFDAATQEATYLDEADVDAELEAMKKRLQEMEEEANRLKEVQEQSASEVPSSEEVDRRSVYVGNVDYGSTPEELQAHFKECGTINRVTILCDKFTGHPKGFAYIEFATEEGANNAVILNESLFRGRNLKVSIKRTNVPGISTTDRGRGRGFPRGIGFRGRGGLRGGFRGRGYHGFRGRGRMTPY | soluble |
| MEVYIPSFRHEDSDLERGYTVFKIEVLMNGRKHFVEKRYSEFHALHKKLKKCIKTPEIPSKHVRNWVPKVLEQRRQGLETYLQAVILENEELPKLFLDFLNVRHLPSLPKAESCGSFDETESEESSKLSHQPVLLFLGDPYVLPAASDFPNVVIEGVLHGIFFSHLQPR | not soluble |
| MEYRLKAYYREGEKPSALRRAGKLPGLMYNRHLNRKVYVDLVEFDKVFRQASIHHVIVLELPDGQSLPTLVRQVNLDKRRRRPEHVDFFVLSDEPVEMYVPLRFVGTPAGVRAGGVLQEIHRDILVKVSPRNIPEFIEVDVSGLEIGDSLHASDLKLPPGVELAVSPEETIAAVVPPEDVEKLAEEAAAEVAEPEVIKKGKEEEEE | soluble |
| MFAELIRAGLQALIEAEATEAIGAGRYERSDGRIVHRNGHRPKTVSTTAGDIEVQIPKLRAGSFFPSLLERRRRIDKALHAVIMEAYVHGVSTRSVDDLVAAMGVQAGVSKSEVSRICAGLDTEIEAFRTRSLTHTEFPYVFCDATFCKVRVGAHVVSQALVVATGVSIDGTREVLGTAVGDSESYEFWREFLASLKARGLTGVHLVISDAHAGLKAAVAQQFSGASWQRCRVHFMRNLYTAVAAKHAPAVTVAVKTIFAHTDPEEVGAQWDRVADPLCQP | soluble |
